From US20220306758A1 (Regeneron, published 2022)

T1: human BCMA on cells (endogenous, on multiple myeloma and lymphoma cell lines) (human, UniProt Q02223 1-184)
T1 sequence: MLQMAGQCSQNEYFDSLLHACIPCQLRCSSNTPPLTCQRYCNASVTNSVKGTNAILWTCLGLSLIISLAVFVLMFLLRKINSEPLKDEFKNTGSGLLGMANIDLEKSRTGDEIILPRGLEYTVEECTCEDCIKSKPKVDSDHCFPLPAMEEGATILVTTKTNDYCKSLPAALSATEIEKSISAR

T2: human BCMA-MMH (extracellular domain of human BCMA with C-terminal myc-myc-hexahistidine tag) (human)
T2 construct: Monomeric antigen; the entry holds the ectodomain and the myc-myc-His tag; also called hBCMA.mmh; hBCMA.mmH
T2 chain: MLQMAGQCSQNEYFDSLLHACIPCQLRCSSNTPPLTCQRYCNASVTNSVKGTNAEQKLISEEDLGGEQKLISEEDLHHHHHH

B1: REGN5458 (bsAb25441D), anti-BCMA x anti-CD3 bispecific antibody (bispecific antibody, V domains shown)
VH 1: EVQLVESGGGLVQPGGSLRLSCAASGFTFSNFWMTWVRQAPGKGLEWVANMNQDGSEKYYVDSVKGRFTISRDNAKSSLYLQMNSLRAEDTAVYYCARDREYCISTSCYDDFDYWGQGTLVTVSS
VH 2: EVQLVESGGGLVQPGRSLRLSCAASGFTFDDYSMHWVRQAPGKGLEWVSGISWNSGSKGYADSVKGRFTISRDNAKNSLYLQMNSLRAEDTALYYCAKYGSGYGKFYHYGLDVWGQGTTVTVSS
VL: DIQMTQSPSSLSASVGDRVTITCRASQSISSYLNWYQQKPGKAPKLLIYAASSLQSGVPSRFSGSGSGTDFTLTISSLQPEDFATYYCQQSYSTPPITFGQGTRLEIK
notes: Two different heavy chains paired with a common light chain; human Fc (captured by anti-human Fc in SPR); also called bsAb25441D9; mAb25441D
B2: REGN5459 (bsAb25442D), anti-BCMA x anti-CD3 bispecific antibody (bispecific antibody, V domains shown)
VH 1: EVQLVESGGGLVQPGGSLRLSCAASGFTFSNFWMTWVRQAPGKGLEWVANMNQDGSEKYYVDSVKGRFTISRDNAKSSLYLQMNSLRAEDTAVYYCARDREYCISTSCYDDFDYWGQGTLVTVSS
VH 2: EVQLVESGGGLVQPGRSLRLSCAASGFTFDDYSMHWVRQAPGKGLEWVSGISWNSGSIGYADSVKGRFTISRDNAKNSLYLQMNSLRAEDTALYYCAKYGSGYGKFYYYGMDVWGQGTTVTVSS
VL: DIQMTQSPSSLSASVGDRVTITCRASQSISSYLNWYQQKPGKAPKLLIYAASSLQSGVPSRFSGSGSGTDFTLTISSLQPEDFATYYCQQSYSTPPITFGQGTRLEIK
notes: also called mAb25442D; mAb25442D-A647

Key:
[1] = target: T1, human BCMA on cells (endogenous, on …); assay: cell-based or functional assay
[2] = target: T1, human BCMA on cells (endogenous, on …); assay: cell-based or functional assay; remark: listed apart in the source
[3] = target: T1, human BCMA on cells (endogenous, on …); assay: cell-based or functional assay; remark: listed apart in the source
[4] = target: T3, monkey BCMA-MFC (monkey BCMA with C-terminal mFc tag) (monkey); assay: SPR, Biacore, mAb captured by anti-hFc, 25 C
T3 construct: also called mfBCMA.mFc
T3 sequence (chain, as listed by the source limits assumed): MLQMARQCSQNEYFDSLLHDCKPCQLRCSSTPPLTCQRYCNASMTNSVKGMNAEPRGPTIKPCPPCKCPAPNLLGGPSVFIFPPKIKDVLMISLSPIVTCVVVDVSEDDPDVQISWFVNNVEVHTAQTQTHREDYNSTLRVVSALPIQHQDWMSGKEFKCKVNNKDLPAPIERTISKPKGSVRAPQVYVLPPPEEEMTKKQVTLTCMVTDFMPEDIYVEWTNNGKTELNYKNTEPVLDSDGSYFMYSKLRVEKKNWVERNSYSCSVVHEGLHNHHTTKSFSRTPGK
Procedure: (§1) The CM5 Biacore sensor surface was derivatized by amine coupling with a monoclonal mouse anti-human Fc antibody (GE, #BR-1008-39) to capture purified anti-BCMA mAbs and anti-BCMA×anti-CD3 bispecific mAbs. All Biacore binding studies were performed in a buffer composed of 0.01M HEPES pH 7.4, 0.15M NaCl, 3 mM EDTA, 0.05% v/v Surfactant P20 (HBS-ET running buffer). […] Antigen samples were then injected over the anti-BCMA and anti-BCMA×anti-CD3 bispecific mAbs captured surfaces at a flow rate of 30 μL/minute. Antibody-reagent association was monitored for 5 minutes while dissociation in HBS-ET running buffer was monitored for 10 minutes. All of the binding kinetics experiments were performed at 25° C. Kinetic association (kₐ) and dissociation (kd) rate constants were determined by fitting the real-time sensorgrams to a 1:1 binding model using Scrubber 2.0c curve fitting software. Binding dissociation equilibrium constants (KD) and dissociative half-lives (t½) were calculated from the kinetic rate constants as: […]

[5] = target: T2, human BCMA-MMH (extracellular domain of …); assay: SPR, Biacore, mAb captured by anti-hFc, 25 C
Procedure: as §1

[6] = target: T4, human CD3 on Jurkat cells and primary human CD8+ T cells (human, UniProt P07766 23-207; P04234 22-171; P20963 22-164; P09693 23-182); assay: flow cytometry on Jurkat cells (human CD3), median EC50, n=5
T4 construct: Endogenous CD3 complex on cells; also called hCD3; Jurkat-hCD3
T4 sequence (P07766 23-207 limits assumed, chain 1 of 4): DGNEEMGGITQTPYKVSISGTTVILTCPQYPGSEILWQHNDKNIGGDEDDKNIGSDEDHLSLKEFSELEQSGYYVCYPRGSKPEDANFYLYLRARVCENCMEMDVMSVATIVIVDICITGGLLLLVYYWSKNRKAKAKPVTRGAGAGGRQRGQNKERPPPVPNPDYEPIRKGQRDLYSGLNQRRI
T4 sequence (P04234 22-171 limits assumed, chain 2 of 4): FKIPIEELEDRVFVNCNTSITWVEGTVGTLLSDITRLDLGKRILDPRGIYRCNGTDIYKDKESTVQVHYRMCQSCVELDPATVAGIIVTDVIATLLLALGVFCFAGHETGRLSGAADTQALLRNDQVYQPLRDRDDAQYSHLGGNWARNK
T4 sequence (P20963 22-164 limits assumed, chain 3 of 4): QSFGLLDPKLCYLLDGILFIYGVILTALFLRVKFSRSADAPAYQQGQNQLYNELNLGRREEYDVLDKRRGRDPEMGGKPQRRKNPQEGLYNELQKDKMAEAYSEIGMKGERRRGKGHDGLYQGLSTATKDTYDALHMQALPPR
T4 sequence (P09693 23-182 limits assumed, chain 4 of 4): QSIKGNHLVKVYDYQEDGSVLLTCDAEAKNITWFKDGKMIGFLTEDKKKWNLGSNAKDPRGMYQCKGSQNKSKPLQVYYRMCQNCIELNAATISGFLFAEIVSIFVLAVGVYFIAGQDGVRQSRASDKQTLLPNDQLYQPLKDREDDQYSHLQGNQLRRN
Procedure: Flow cytometric analysis was utilized to determine binding of BCMA×CD3 bispecific antibodies to human and cynomolgus CD3 (Jurkat cells, mfCD3 engineered Jurkat cells, primary human CD8+ and cynomolgus CD8+ T cells). Briefly, 1e05 cells/well were incubated in the presence of FACS wash with block (PBS+1% filtered FBS+5% mouse serum) with a serial dilution of BCMA×CD3 and control antibodies for 30 minutes on ice. After incubation, the cells were washed twice with cold FACS wash (PBS+1% filtered FBS) and bound antibody was detected by incubating with Alexa647-conjugated anti-human secondary antibody on ice for an additional 30 minutes. Wells containing no antibody or secondary only were used as a control. For the detection of monkey and human T cells, a cocktail of human and cynomolgus cross-reactive antibodies to CD4, CD8 and CD16 was added to the anti-human secondary. After incubation, cells were washed, re-suspended in 200 μL cold PBS containing 1% filtered FBS and analyzed by flow cytometry on a BD FACS Canto II. Cells were gated by FSC-H by FSC-A to select singlet events, followed by side and forward scatters to select for live events. For monkey T cells, additional gating on CD8+/CD16− cells was performed.
EC50 values for FACS binding were calculated using 4-parameter non-linear regression analysis in Prism software.

[7] = target: T1, human BCMA on cells (endogenous, on …); assay: flow cytometry on MM.1S cells, Alexa647 conjugate
Procedure: (§2) Cells were then washed and fixed for 25 mins at 4° C. using a 50% solution of BD Cytofix (BD, Cat #554655) diluted in PBS. […] After gating for live cells and single cells, the mean fluorescent intensity (MFI) was determined, and MFI values were plotted in Graphpad Prism using a four-parameter logistic equation over a 10-point response curve to calculate EC₅₀s. The zero condition for each dose-response curve is also included in the analysis as a continuation of the two-fold serial dilution and is represented as the lowest dose. The signal to noise (S/N) is determined by taking the ratio of the mAb25442D-A647 MFI to the Isotype-A647 MFI. (Table 13). The mAb25442D-A647 S/N ranged from 2 to 470 and the EC₅₀ values ranged from 27 to 83 nM. No detectable binding was observed on HEK293 cells.

[8] = target: T1, human BCMA on cells (endogenous, on …); assay: flow cytometry on OPM-2 cells, Alexa647 conjugate
Procedure: as §2

[9] = target: T1, human BCMA on cells (endogenous, on …); assay: flow cytometry on NCI-H929 cells, Alexa647 conjugate
Procedure: as §2

[10] = target: T1, human BCMA on cells (endogenous, on …); assay: flow cytometry on RPMI-8226 cells, Alexa647 conjugate
Procedure: as §2

Binder | EC50 of NFAT-luciferase activity, Jurkat/NFATLuc reporter cells with MOLP-8 cells [1] [nM] | EC50 of NFAT-luciferase activity, Jurkat/NFATLuc reporter cells with RPMI-8226 cells [1] [nM] | EC50 of NFAT-luciferase activity, Jurkat/NFATLuc reporter cells with Raji cells [1] [nM] | 30 nM mfBCMA.mFc Bind (RU) [4] [RU] | Kd [4] [nM] | koff [4] [s⁻¹] | kon [4] [M⁻¹ s⁻¹] | t½ [4] [h] | 90 nM hBCMA.mmh Bind (RU) [5] [RU] | Kd [5] [nM] | koff [5] [s⁻¹] | kon [5] [M⁻¹ s⁻¹] | t½ [5] [h] | EC50 [6] [nM] | further results
B1 | 1.4 | 0.61 | 1.6 | 108 | 0.167 | 8.8e-05 | 528000 | 2.19 | 19.9 | 1.06 | 0.000874 | 827000 | 0.22 | 15 | MFI fold change over cells incubated in media only, NCI-H929, 18 h with 67 nM antibody, then stained with the same antibody [2]: 2 fold; MFI fold change over cells incubated in media only, NCI-H929, 18 h with 667 nM antibody, then stained with the same antibody [2]: 3 fold; MFI fold change over cells incubated in media only, U266, 18 h with 67 nM antibody, then stained with the same antibody [3]: 1.4 fold; MFI fold change over cells incubated in media only, U266, 18 h with 667 nM antibody, then stained with the same antibody [3]: 2.3 fold
B2 | 11 | 2.6 | 7.4 | 97 | 0.148 | 7.15e-05 | 482000 | 2.69 | 17 | 1.38 | 0.00101 | 730000 | 0.192 | 558 | EC50 [7]: 83 nM; EC50 [8]: 57 nM; EC50 [9]: 79 nM; EC50 [10]: 27 nM
